In patent US20220363757A1 (SYMPHOGEN A S, published 2022):
Positions count from the first letter of the chain named.

Tests used:
Experiment in all cases: SPR, Fab over captured mutant LAG-3-Fc;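 note: fc fusion variants captured on anti-human IgG Fc sensor, Fab injected with association then dissociation phases, KD obtained from Langmuir one-to-one fit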
[1] = molecular target: T1, human LAG-3 domain 1-2 Fc fusion, point mutation #72 S133A (human, UniProt P18627 23-266)
T1 construct: not shown: human IgG1 Fc, AA P101-K330
T1 sequence: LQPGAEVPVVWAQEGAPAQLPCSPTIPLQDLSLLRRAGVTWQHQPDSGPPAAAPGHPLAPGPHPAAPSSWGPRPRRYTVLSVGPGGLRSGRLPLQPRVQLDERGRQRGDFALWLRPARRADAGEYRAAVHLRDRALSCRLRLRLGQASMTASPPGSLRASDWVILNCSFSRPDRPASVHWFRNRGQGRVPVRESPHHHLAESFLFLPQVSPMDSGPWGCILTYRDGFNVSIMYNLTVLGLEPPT

[2] = molecular target: T2, human LAG-3 domain 1-2 Fc fusion, point mutation #38 S91A (human, UniProt P18627 23-266)
T2 construct: not shown: human IgG1 Fc, AA P101-K330
T2 sequence: T1 sequence with S69A, A111S

[3] = molecular target: T3, human LAG-3 domain 1-2 Fc fusion, point mutation #67 R127A (human, UniProt P18627 23-266)
T3 construct: not shown: human IgG1 Fc, AA P101-K330
T3 sequence: T1 sequence with R105A, A111S

[4] = molecular target: T4, human LAG-3 domain 1-2 Fc fusion, point mutation #40 G93A (human, UniProt P18627 23-266)
T4 construct: not shown: human IgG1 Fc, AA P101-K330
T4 sequence: T1 sequence with G71A, A111S

[5] = molecular target: T5, human LAG-3 domain 1-2 Fc fusion, point mutation #76 D143A (human, UniProt P18627 23-266)
T5 construct: not shown: human IgG1 Fc, AA P101-K330
T5 sequence: T1 sequence with A111S, D121A

[6] = molecular target: T6, human LAG-3 domain 1-2 Fc fusion, point mutation #19 D68A (human, UniProt P18627 23-266)
T6 construct: not shown: human IgG1 Fc, AA P101-K330
T6 sequence: T1 sequence with D46A, A111S

[7] = molecular target: T7, human LAG-3 domain 1-2 Fc fusion, point mutation #32 H85A (human, UniProt P18627 23-266)
T7 construct: not shown: human IgG1 Fc, AA P101-K330
T7 sequence: T1 sequence with H63A, A111S

[8] = molecular target: T8, human LAG-3 domain 1-2 Fc fusion, point mutation #28 A81S (human, UniProt P18627 23-266)
T8 construct: not shown: human IgG1 Fc, AA P101-K330
T8 sequence: T1 sequence with A59S, A111S

[9] = molecular target: T9, human LAG-3 domain 1-2 Fc fusion, point mutation #41 P94A (human, UniProt P18627 23-266)
T9 construct: not shown: human IgG1 Fc, AA P101-K330
T9 sequence: T1 sequence with P72A, A111S

B1: Fab fragment of antibody 15011 (Fab, V domains shown, not shown: a dimerising Fc or GST)
VH: EVQLLESGGGLVQPGGSLRLSCAASGFDFRSYAMMWVRQAPGKGLEWVGGINGEVGGSNTYYAPAVKGRATISRDNSKNTLYLQMNSLRAEDTAVYYCVKGAGACGICNDDIDAWGQGTLVTVSS
VL: SYELTQDPAVSVALGQTVRITCSGAGSYAGSYYYGWHQQKPGQAPVTVIYDNDKRPSNIPDRFSGSSSGNTASLTITGAQAEDEADYYCGSTNDNDDGGLFGSGTKVTVLG
notes: monomeric Fab made by GingisKHAN digestion of the IgG1
KD mutant/KD wild type [1]: 0.6 fold
KD mutant/KD wild type [2]: 0.8 fold
KD mutant/KD wild type [3]: 0.9 fold
KD mutant/KD wild type [4]: 1 fold
KD mutant/KD wild type [5]: 0.5 fold
KD mutant/KD wild type [6]: 0.6 fold
KD mutant/KD wild type [7]: 0.9 fold
KD mutant/KD wild type [8]: 0.8 fold
KD mutant/KD wild type [9]: 0.7 fold

B2: Fab fragment of antibody 15572 (Fab, V domains shown, not shown: a dimerising Fc or GST)
VH: QLQLQESGPGLVKPSETLSLTCTVSGDSISSSSYYWGWIRQPPGKGLEWIGSIFYSGNTYYNPSLKSRVTISVDTSKNQFSLKLSSVTAADTAVYYCAREDDFLTDYYGAFDIWGQGTMVTVSS
VL: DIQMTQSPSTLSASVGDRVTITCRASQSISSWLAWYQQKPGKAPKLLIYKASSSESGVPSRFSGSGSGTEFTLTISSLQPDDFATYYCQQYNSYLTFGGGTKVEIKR
notes: as for B1
binding result [1]: no binding (tested: 300 nM)
KD mutant/KD wild type [2]: 0.7 fold
KD mutant/KD wild type [3]: 0.5 fold
KD mutant/KD wild type [4]: 0.8 fold
binding result [5]: no binding (tested: 300 nM)
binding result [6]: no binding (tested: 300 nM)
KD mutant/KD wild type [7]: 0.7 fold
KD mutant/KD wild type [8]: 0.6 fold
KD mutant/KD wild type [9]: 0.6 fold

B3: Fab fragment of antibody 15532 (Fab, V domains shown, not shown: a dimerising Fc or GST)
VH: QVQLQQWGAGLLRPSETLSLTCAVYGESFSGYYWNWIRQPPGKGLEWIGEINHSGSTNYNPSLKSRVTISVDTSKTQFSLKLSSVTAADTAVYYCARGWDLLDWNDYWNEYWGQGTLVTVSS
VL: EIVLTQSPATLSLSPGERATLSCRASQSVSSYLAWYQQKPGQAPRLLIYDASNRATGIPARFSGSGSGTDFTLTISSLEPEDFAVYYCQQRSNWPLTFGGGTKVEIKR
notes: as for B1
KD mutant/KD wild type [1]: 2.2 fold
KD mutant/KD wild type [2]: 5.3 fold
KD mutant/KD wild type [3]: 0.6 fold
KD mutant/KD wild type [4]: 7.1 fold
KD mutant/KD wild type [5]: 3.8 fold
KD mutant/KD wild type [6]: 3.4 fold
KD mutant/KD wild type [7]: 7.2 fold
KD mutant/KD wild type [8]: 0.6 fold
KD mutant/KD wild type [9]: 0.8 fold

B4: Fab fragment of antibody 15431 (Fab, V domains shown, not shown: a dimerising Fc or GST)
VH: QVQLQQSGPGLVKPSQTLSLTCAISGDSVSSNSAAWNWIRQSPSRGLEWLGRTYYRSKWYNDYAVSVKSRITINPDTSKNQFSLQLNSVTPEDTAVYYCARDDDWNDFDYWGQGTLVTVSS
VL: B3 VL
notes: as for B1
binding result [1]: no binding (tested: 300 nM)
KD mutant/KD wild type [2]: 0.7 fold
KD mutant/KD wild type [3]: 0.9 fold
KD mutant/KD wild type [4]: 11.6 fold
binding result [5]: no binding (tested: 300 nM)
binding result [6]: no binding (tested: 300 nM)
KD mutant/KD wild type [7]: 0.8 fold
KD mutant/KD wild type [8]: 0.6 fold
binding result [9]: no binding (tested: 300 nM)
